Data on two substances can be found in PMC3545873.

Test [1] deals with StrepTactin. Put plainly: optical tweezers (single-molecule pulling); STN covalently coupled to polystyrene beads; tST-DNA-biotin held by its biotin on NTV-coated beads; tST-STN linkage formed in situ; stretched and relaxed at 50 nm/s to just beyond DNA overstretching at about 65 pN until the connection broke; connections that broke below 20 pN disregarded; N = 111.
The target of test [2] is StrepTag II. Particulars: cited from earlier work.

Streptavidin, sequence (P22629 25-183): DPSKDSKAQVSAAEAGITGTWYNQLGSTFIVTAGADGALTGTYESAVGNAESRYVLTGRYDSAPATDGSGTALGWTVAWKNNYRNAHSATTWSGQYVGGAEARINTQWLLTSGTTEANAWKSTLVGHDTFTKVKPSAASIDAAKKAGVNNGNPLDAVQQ

In test [1], “tST-DNA-biotin (tandem of two StrepTag II peptides linked to 2553 bp dsDNA, biotinylated at the other DNA end)” gave an average rupture force of more than 65 pN, a fraction of times the tether survives overstretching (first pull) of 77% and a fraction of times the tether survives overstretching (subsequent pulls) of 87%.
The Kd is the free concentration of one partner at which half of the binding sites on the other are occupied at equilibrium, for simple one-to-one binding. In the case of Streptavidin (from UniProt P22629), the Kd in test [2] is 72 µM.
